The target of assay [1] is T1, Rhesus CD122 (rhesus monkey, UniProt Q38J85 27-551 (cynomolgus entry)).
T1 construct: also called rhCD122 on cells
T1 sequence: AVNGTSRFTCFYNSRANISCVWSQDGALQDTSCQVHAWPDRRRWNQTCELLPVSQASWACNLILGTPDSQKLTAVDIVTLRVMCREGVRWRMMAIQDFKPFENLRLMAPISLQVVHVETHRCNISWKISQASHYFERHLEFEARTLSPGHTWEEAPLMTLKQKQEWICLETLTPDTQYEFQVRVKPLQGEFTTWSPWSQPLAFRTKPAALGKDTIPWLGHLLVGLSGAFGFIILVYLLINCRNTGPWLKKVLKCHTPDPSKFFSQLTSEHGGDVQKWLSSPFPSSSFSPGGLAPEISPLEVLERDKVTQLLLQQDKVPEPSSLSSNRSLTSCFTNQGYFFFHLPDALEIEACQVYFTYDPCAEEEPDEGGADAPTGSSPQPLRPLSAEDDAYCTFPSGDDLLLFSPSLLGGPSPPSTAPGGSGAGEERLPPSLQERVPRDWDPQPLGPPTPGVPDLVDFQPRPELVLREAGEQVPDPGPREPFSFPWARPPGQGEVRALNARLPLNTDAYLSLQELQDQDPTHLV
The assay can be described thus: flow cytometry (FACS) on rhIL15Rβ-transfected CHO-K1 cells, anti-human IgG-FITC, GeoMFI. Here is the method: (§1) Purified IgGs were tested in FACs for binding to human and rhesus CD122 expressed on CHO-K1 stable cell lines and CHO-K1 wild-type cells. The IgG samples were titrated in three-fold serial dilutions starting at 500 nM to […]. Binding of IgGs was detected with a mouse anti-human IgG conjugated to FITC. Results were analyzed by examining the Mean Fluorescence Intensity (MFI) of 10000 cells per sample in the BL-1 channel detector of a flow cytometer (AttuneTM NxT Acoustic Focusing Cytometer, Invitrogen/ ThermoFisher Scientific).
A general note: Flow cytometry measures light scatter and fluorescence of single cells or particles in a stream.

Assay [2] deals with T1, Rhesus CD122. Described as above. Here is the method: as §1
The source holds these as a separate data set.

Assay [3] has as its target T2, Human CD122 (human, UniProt P14784 27-551).
T2 sequence: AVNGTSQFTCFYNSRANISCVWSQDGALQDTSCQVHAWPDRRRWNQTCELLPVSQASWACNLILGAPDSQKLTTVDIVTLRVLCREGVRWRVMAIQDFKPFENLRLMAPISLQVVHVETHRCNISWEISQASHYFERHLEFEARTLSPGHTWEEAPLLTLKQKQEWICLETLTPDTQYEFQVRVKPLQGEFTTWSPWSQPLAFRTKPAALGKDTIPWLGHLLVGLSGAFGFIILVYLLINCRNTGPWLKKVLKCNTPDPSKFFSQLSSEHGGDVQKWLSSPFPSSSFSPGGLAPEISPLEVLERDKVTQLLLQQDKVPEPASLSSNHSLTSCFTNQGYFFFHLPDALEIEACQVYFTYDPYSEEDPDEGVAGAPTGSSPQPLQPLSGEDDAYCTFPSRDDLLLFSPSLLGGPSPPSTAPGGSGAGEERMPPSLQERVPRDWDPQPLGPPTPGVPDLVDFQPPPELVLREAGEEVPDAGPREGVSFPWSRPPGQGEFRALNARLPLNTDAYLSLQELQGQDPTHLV
The assay can be described thus: cell-based or functional assay.

The record followed here is US20230357420A1 (VILLARIS THERAPEUTICS, published 2023).

Where two headings read alike, the source gives them in different places.

B1: IgG1-MIKβ1 (humanized) (antibody, V domains shown)
VH: EVQLLESGGGLVQPGGSLRLSCAASGFSVTSYGVHWIRQAPGKGLEWLGVIWSGGSTDYNAAFISRLTISKDNSKNTVYFQMNSLQAEDTAIYYCARAGDYNYDGFAYWGQGTLVTVSS
VL: DIVLTQSPSSLSASVGDRVTITCSGSSSVSFMYWYQQRPGKAPRLLIYDTSNLASGVPSRFSGSGSGTSYTFTISSLQPEDIATYYCQQWSTYPLTFGQGTKVEVK
notes: also called VillMab-1; VillMAB-1
On to B1, for which the “EC50 (read off the curve)” value is about 0.7 nM in assay [1] and about 0.6 nM in assay [2]. In assay [3], the “IC50, IL-15-induced M07e cell proliferation” value amounted to 9.79 µg/mL.

As a reminder, the EC50 (read off the curve) is the concentration that produces a half-maximal response. Lower therefore signals greater potency.
